According to the Immune Epitope Database (IEDB):

Tests used:
[1] = target: HLA-B*07:02; assay: IEDB peptide-MHC binding, purified MHC/competitive/fluorescence; filed as Kd, often an IC50 or EC50 that approximates it; ≥ and ≤ were set here for values at or beyond the usual limits of such assays; conditions: source organism: Mycobacterium leprae
[2] = target: HLA-B*27:05; assay: as above; conditions: source organism: Mycobacterium leprae
[3] = target: HLA-A*02:06; assay: as above; conditions: source organism: Mycobacterium leprae
[4] = target: HLA-B*15:01; assay: as above; conditions: source organism: Mycobacterium leprae
[5] = target: HLA-A*30:01; assay: as above; conditions: source organism: Mycobacterium leprae
[6] = target: HLA-A*02:01; assay: as above; conditions: source organism: Mycobacterium leprae
[7] = target: HLA-B*15:17; assay: as above; conditions: source organism: Mycobacterium leprae
[8] = target: HLA-A*02:03; assay: as above; conditions: source organism: Mycobacterium leprae
[9] = target: HLA-B*46:01; assay: as above; conditions: source organism: Mycobacterium leprae
[10] = target: HLA-A*31:01; assay: as above; conditions: source organism: Mycobacterium leprae
[11] = target: HLA-B*18:01; assay: as above; conditions: source organism: Mycobacterium leprae
[12] = target: HLA-A*68:02; assay: as above
[13] = target: HLA-B*08:01; assay: as above; conditions: source organism: Mycobacterium leprae
[14] = target: HLA-A*11:01; assay: as above; conditions: source organism: Mycobacterium leprae
[15] = target: HLA-A*01:01; assay: as above; conditions: source organism: Mycobacterium leprae
[16] = target: HLA-A*69:01; assay: as above; conditions: source organism: Mycobacterium leprae
[17] = target: HLA-A*26:03; assay: as above; conditions: source organism: Mycobacterium leprae
[18] = target: HLA-B*08:03; assay: as above; conditions: source organism: Mycobacterium leprae
[19] = target: HLA-B*08:02; assay: as above; conditions: source organism: Mycobacterium leprae
[20] = target: HLA-B*58:01; assay: as above; conditions: source organism: Mycobacterium leprae
[21] = target: HLA-B*48:01; assay: as above; conditions: source organism: Mycobacterium leprae
[22] = target: HLA-B*57:01; assay: as above; conditions: source organism: Mycobacterium leprae
[23] = target: HLA-B*40:01; assay: as above; conditions: source organism: Mycobacterium leprae
[24] = target: HLA-B*35:01; assay: as above; conditions: source organism: Mycobacterium leprae
[25] = target: HLA-A*26:02; assay: as above; conditions: source organism: Mycobacterium leprae
[26] = target: HLA-A*02:50; assay: as above; conditions: source organism: Yersinia bercovieri ATCC 43970
[27] = target: HLA-A*02:01; assay: IEDB peptide-MHC binding, purified MHC/direct/fluorescence; filed as Kd, often an IC50 or EC50 that approximates it; ≥ and ≤ were set here for values at or beyond the usual limits of such assays; conditions: source organism: Yersinia enterocolitica
[28] = target: HLA-A*02:16; assay: as above; conditions: source organism: Yersinia enterocolitica subsp. enterocolitica 8081
[29] = target: HLA-A*02:11; assay: as above; conditions: source organism: Yersinia enterocolitica subsp. enterocolitica 8081
[30] = target: HLA-A*69:01; assay: as above
[31] = target: HLA-A*02:12; assay: as above; conditions: source organism: Yersinia enterocolitica subsp. enterocolitica 8081
[32] = target: HLA-B*39:01; assay: IEDB peptide-MHC binding, purified MHC/competitive/fluorescence; filed as Kd, often an IC50 or EC50 that approximates it; ≥ and ≤ were set here for values at or beyond the usual limits of such assays; conditions: source organism: Vaccinia virus WR
[33] = target: HLA-B*15:09; assay: as above; conditions: source organism: Vaccinia virus WR
[34] = target: HLA-B*07:02; assay: IEDB peptide-MHC binding, purified MHC/direct/fluorescence; filed as Kd, often an IC50 or EC50 that approximates it; ≥ and ≤ were set here for values at or beyond the usual limits of such assays; conditions: source organism: Camelpox virus M-96
[35] = target: HLA-B*27:05; assay: as above; conditions: source organism: Camelpox virus M-96
[36] = target: HLA-B*15:17; assay: as above; conditions: source organism: Camelpox virus M-96
[37] = target: HLA-A*31:01; assay: as above; conditions: source organism: Camelpox virus M-96
[38] = target: HLA-B*18:01; assay: as above; conditions: source organism: Camelpox virus M-96
[39] = target: HLA-A*26:01; assay: as above; conditions: source organism: Variola virus
[40] = target: HLA-B*08:01; assay: as above; conditions: source organism: Variola virus
[41] = target: HLA-A*11:01; assay: as above; conditions: source organism: Camelpox virus M-96
[42] = target: HLA-A*01:01; assay: as above; conditions: source organism: Camelpox virus M-96
[43] = target: HLA-B*08:03; assay: as above; conditions: source organism: Variola virus
[44] = target: HLA-B*08:02; assay: as above; conditions: source organism: Variola virus
[45] = target: HLA-B*58:01; assay: as above; conditions: source organism: Camelpox virus M-96
[46] = target: HLA-B*44:02; assay: as above; conditions: source organism: Camelpox virus M-96
[47] = target: HLA-B*48:01; assay: as above; conditions: source organism: Camelpox virus M-96
[48] = target: HLA-B*57:01; assay: as above; conditions: source organism: Camelpox virus M-96
[49] = target: HLA-B*40:01; assay: as above; conditions: source organism: Camelpox virus M-96
[50] = target: HLA-A*26:02; assay: as above; conditions: source organism: Variola virus

Which Kd [1] does the source give for TVGYMYIMK here?
The Kd was ≥ 20 µM.

What about the Kd [2] of the same sequence?
The Kd was ≥ 20 µM.

What about the Kd [3] of the same sequence?
Its Kd is ≥ 20 µM.

And the Kd [4]?
The Kd was ≥ 20 µM.

And the Kd [5]?
Its Kd is 0.0488 µM.

What about the Kd [6] of the same sequence?
Its Kd is ≥ 20 µM.

What about the Kd [7] of the same sequence?
Its Kd is ≥ 20 µM.

What about the Kd [8] of the same sequence?
Its Kd is ≥ 20 µM.

And the Kd [9]?
The Kd was ≥ 20 µM.

And the Kd [10]?
The Kd was ≥ 5 µM.

What about the Kd [11] of the same sequence?
The Kd was ≥ 20 µM.

And the Kd ([12]; source organism: Mycobacterium leprae)?
Its Kd is ≥ 20 µM.

What about the Kd [13] of the same sequence?
Its Kd is ≥ 20 µM.

What about the Kd [14] of the same sequence?
The Kd was 0.0049 µM.

What about the Kd [15] of the same sequence?
Its Kd is ≥ 20 µM.

And the Kd [16]?
Its Kd is ≥ 20 µM.

And the Kd [17]?
The Kd was ≥ 20 µM.

And the Kd [18]?
Its Kd is ≥ 20 µM.

What about the Kd [19] of the same sequence?
Its Kd is ≥ 20 µM.

And the Kd [20]?
Its Kd is ≥ 20 µM.

What about the Kd [21] of the same sequence?
The Kd was ≥ 20 µM.

What about the Kd [22] of the same sequence?
The Kd was ≥ 20 µM.

And the Kd [23]?
Its Kd is ≥ 20 µM.

What about the Kd [24] of the same sequence?
Its Kd is ≥ 20 µM.

What about the Kd [25] of the same sequence?
The Kd was ≥ 20 µM.

Which results are given for TLLCGAATA?
Kd [26]: 0.012 µM; Kd [27]: 0.196 µM; Kd [28]: 0.057 µM; Kd [29]: 0.042 µM; Kd ([30]; source organism: Yersinia enterocolitica): 0.394 µM; Kd [31]: 0.021 µM

FENDIDEIL was tested. Which Kd ([12]; source organism: Vaccinia virus WR) did it give?
The Kd was 2.14 µM.

And the Kd [32]?
The Kd was ≥ 20 µM.

And the Kd [33]?
The Kd was ≥ 20 µM.

And the Kd [34]?
Its Kd is ≥ 20 µM.

What about the Kd [35] of the same sequence?
The Kd was ≥ 20 µM.

What about the Kd [36] of the same sequence?
Its Kd is ≥ 20 µM.

What about the Kd [37] of the same sequence?
The Kd was ≥ 20 µM.

And the Kd [38]?
The Kd was 0.122 µM.

And the Kd [39]?
The Kd was ≥ 20 µM.

And the Kd [40]?
The Kd was ≥ 20 µM.

And the Kd [41]?
Its Kd is ≥ 20 µM.

And the Kd [42]?
The Kd was ≥ 20 µM.

What about the Kd ([30]; source organism: Camelpox virus M-96) of the same sequence?
The Kd was ≥ 20 µM.

And the Kd [43]?
Its Kd is ≥ 20 µM.

What about the Kd [44] of the same sequence?
The Kd was ≥ 20 µM.

And the Kd [45]?
Its Kd is ≥ 20 µM.

What about the Kd [46] of the same sequence?
The Kd was ≥ 20 µM.

And the Kd [47]?
The Kd was 1.2 µM.

And the Kd [48]?
The Kd was ≥ 20 µM.

And the Kd [49]?
The Kd was 0.0053 µM.

What about the Kd [50] of the same sequence?
Its Kd is ≥ 20 µM.
